The record followed here is patent US20240083971A1, “IMMUNE EFFECTOR CELL COVALENT IMMUNE RECRUITING (CIR) MOLECULES AND METHODS AND USES THEREOF” (McMaster University, priority 2022, published 2024).

Data set [1] addresses T1, CD64 (Homo sapiens, UniProt P12314). As to the kind of experiment: Kon (M^-1 s^-1). How it is done: (§1) Table printed on a drawing sheet, FIG. 8A
Head of the field: Kon (M^-1 s^-1)
(§2) The patent's description of the figure: FIG. 8A-8B depicts results for the CP-33(N-term “Y” insertion mutant). […] (Note: the linker-biotin is attached to the azide; DBCO-Biotin not shown).
(§3) First copying reader's note: The name cp33-nt-tyr is printed with the structure in FIG. 8B on the same sheet; per the description, the BLI kinetics were measured with its linker-biotin conjugate binding to human CD64.
Target sequence in this assay (P12314 16-374 limits assumed): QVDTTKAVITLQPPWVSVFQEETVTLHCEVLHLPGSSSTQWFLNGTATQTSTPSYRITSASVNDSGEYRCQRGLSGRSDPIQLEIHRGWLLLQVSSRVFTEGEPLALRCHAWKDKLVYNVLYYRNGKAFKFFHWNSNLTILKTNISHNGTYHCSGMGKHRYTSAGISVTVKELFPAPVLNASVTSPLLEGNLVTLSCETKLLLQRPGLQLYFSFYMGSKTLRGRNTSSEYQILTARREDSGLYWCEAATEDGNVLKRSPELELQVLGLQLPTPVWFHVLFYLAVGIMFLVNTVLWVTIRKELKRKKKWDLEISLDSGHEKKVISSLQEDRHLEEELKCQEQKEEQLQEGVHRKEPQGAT

Data set [2] has as its target T1, CD64. Put plainly: Koff (s^-1). As for the experimental part: as §1
Target sequence in this assay (P12314 16-374 limits assumed): as above
Head of the field: Koff (s^-1)
as §2, §3

The nature of data set [3]: LC-MS stability in aqueous conditions at room temperature. As to conditions: over 27 hours.
Method: The stability of the three sulfonyl fluoride variants in aqueous conditions at room temperature were then assessed using LC-MS. LC-MS measurements were taken over 27 hours and peaks on the UV chromatogram were monitored for CIR degradation (FIG. 19-21).
Data set [4] concerns the target T1, CD64. Put plainly: fluorescent SDS-PAGE covalent labelling kinetics of CD64. It is filed as binding. To be noted: 1.6 μM CIR, 800 nM CD64, one-phase association fit. How it is done:
Dark bands show A647 fluorescence as measured using the Cy5 channel and represent covalent CIR binding. 1.6 μM of CIR was incubated with 800 nM CD64 for different amounts of time before being run on a SDS-PAGE gel.
The fluorescence intensity of each band in FIG. 17A-17C was measured and then compared to the fluorescence intensity of the band at 100% fraction labelled (where the fluorescence intensity reaches a plateau) to make a fraction bound vs time graph. The curve of the graph was fitted to a one-phase association curve in GraphPad Prism 8 to find the Kobs.
The kinetics of the labelling reaction was also investigated using fluorescent SDS-PAGE gels similar to as described above. 1.6 μM of CIR was incubated with 800 nM CD64 for different amounts of time before being run on a SDS-PAGE gel (FIG. 17). The fluorescence intensity of each band was then measured and then compared to the fluorescence intensity of the band at 100% fraction labelled (where the fluorescence intensity reaches a plateau) to make a fraction bound vs time graph (FIG. 18). The curve of the graph was fitted to a one-phase association curve to find the Kobs.
Target sequence in this assay (P12314 16-374): as the sequence (P12314 16-374 limits assumed) above

The target in data set [5] is T1, CD64. Put plainly: fluorescent SDS-PAGE covalent labelling specificity of sulfonyl fluoride CIRs (CD64, CD16, BSA). It is filed as binding. As to conditions: 1.6 μM CIR-A647, 800 nM protein, 7 hours, room temperature. How it is done:
Dark bands show A647 fluorescence as measured using the Cy5 channel and represent covalent CIR binding. For each sample, 1.6 μM CIR clicked to A647 fluorescent dye was incubated with 800 nM of protein for 7 hours.
The specificity of the three sulfonyl fluoride CIR variations for labelling CD64 were investigated using a fluorescent SDS-PAGE assay similar to as described above (FIG. 16). 1.6 μM CIR clicked to A647 fluorescent dye was incubated with 800 nM of protein for 7 hours at room temperature in the dark. Three different proteins were assayed to test specificity: CD64, CD16, and BSA. The samples were then run on a 4-20% gradient acrylamide gel and fluorescence was measured using the Cy5 channel with an Amersham Typhoon biomolecular imager. Only covalently labelled CIR will remain bound to CD64 in SDS-PAGE giving rise to fluorescent bands.
Target sequence in this assay (P12314 16-374): as the sequence (P12314 16-374 limits assumed) above

The target in the next data set is T2, CD64 on live U937 cells (Homo sapiens, UniProt P12314).
T2 construct: endogenous in cells
Put plainly: CIR-biotin labeling of CD64 on live U937 cells detected with streptavidin-PE. To be noted: 24 hours at 37° C. with IFNγ. The class given is cell-based. As for the experimental part: CIR-biotin was incubated with U937 cells for 24 hours at 37° C. along with IFNγ. The cells were then washed and incubated with streptavidin-PE. The streptavidin binds tightly to the biotin on the CIR and the fluorescent PE signal was read. cP33-ct-aryl SuFEx (CT), cP33-int-aryl SuFEx (INT), cP33-nt-aryl SuFEx (NT), and a noncovalent analog were incubated at increasing concentrations.
The ability of the three sulfonyl fluoride CIR variants to label CD64 on the surface of live cells was assayed using CIRs clicked to a biotin handle. CIR-biotin was incubated with U937 cells for 24 hours at 37° C. along with IFNγ. Post reaction, the cells were washed and incubated with streptavidin-PE. The streptavidin binds tightly to the biotin on the CIR and the fluorescent PE signal was read using a BD LSRII flow cytometer (FIG. 24). 100X CIR not labelled with biotin was used as competitor control to assess specificity and covalency (FIG. 25).

The target in data set [6] is T3, human CD64 (recombinant) (human, UniProt P12314 16-288).
T3 chain: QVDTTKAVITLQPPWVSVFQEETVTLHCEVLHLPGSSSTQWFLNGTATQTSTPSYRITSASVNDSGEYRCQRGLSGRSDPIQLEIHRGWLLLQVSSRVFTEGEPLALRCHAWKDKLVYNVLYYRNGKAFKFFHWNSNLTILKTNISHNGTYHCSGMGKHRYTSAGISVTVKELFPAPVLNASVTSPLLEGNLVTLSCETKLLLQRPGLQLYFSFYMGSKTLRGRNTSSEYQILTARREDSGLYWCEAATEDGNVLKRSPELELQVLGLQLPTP
As to the kind of experiment: BLI; 200 nM CD64. In general terms: In BLI a coated tip is dipped into the sample, and binding shifts an interference pattern.

The target of data set [7] is T3, human CD64 (recombinant). Put plainly: BLI; 50 nM CD64.
The target in data set [8] is T3, human CD64 (recombinant). Put plainly: BLI; 100 nM CD64.
In data set [9] the target is T3, human CD64 (recombinant). Put plainly: BLI; 12.5 nM CD64.
Data set [10] concerns the target T3, human CD64 (recombinant). As to the kind of experiment: BLI; 50 nM CD64.
In data set [11] the target is T3, human CD64 (recombinant). As to the kind of experiment: BLI; 100 nM CD64.
The target of data set [12] is T3, human CD64 (recombinant). As to the kind of experiment: BLI; 25 nM CD64.
The target in data set [13] is T3, human CD64 (recombinant). Put plainly: BLI.
Data set [14] addresses T4, human CD64 (recombinant) (human, UniProt P12314 16-288, limits assumed).
T4 construct: Recombinant protein in solution, or biotinylated on streptavidin biosensors; Some passages print only 'CD64'; also called huCD64; biotinylated huCD64
As to the kind of experiment: fluorescence SDS-PAGE covalent labelling kinetics, 1.6 µM CIR with 800 nM CD64, one-phase association fit.

Bridges are numbered along the chain shown (N, C = ends). Primed or numbered codes have the meaning given here. Where no end group is shown, it is not given here. [ ]: non-standard residue; d: D form. The star is where a group is joined. Biotin = O=C1N[C@H]2[C@H](CS[C@H]2CCCCC(=O)*)N1; Benzoyl(3-SO2F) = O=C(c1cccc(S(=O)(=O)F)c1)*; Lys(N3) = [N-]=[N+]=NCCCC[C@H](N)C(=O)O; azido = azide group (monovalent —N3); DBCO′ = not defined here; PEG4′ = not defined here

T2 sequence (P12314 16-374): as the sequence (P12314 16-374 limits assumed) above

For orientation: kon means the rate constant with which the complex forms. Read a high kon as fast association. The term koff denotes the rate constant with which the complex falls apart. A higher koff goes with a short-lived complex. On to `CC(=O)N[C@@H](CCCCN=[N+]=[N-])C(=O)NCC(=O)N[C@@H](Cc1ccc(O)cc1)C(=O)N[C@H](C(=O)N[C@@H](CC(N)=O)C(=O)N[C@@H](CO)C(=O)N[C@H]1CSSC[C@@H](C(=O)NCC(=O)N[C@@H](CC(=O)O)C(=O)N[C@@H](CC(=O)O)C(N)=O)NC(=O)CNC(=O)[C@H](CC(C)C)NC(=O)[C@H](CC(C)C)NC(=O)[C@H](CC(N)=O)NC(=O)[C@@H]2CCCN2C(=O)[C@H](CC(C)C)NC(=O)[C@H](CC(C)C)NC(=O)[C@H](CC(C)C)NC1=O)C(C)C` [cp33-nt-tyr], for which the on-rate (kon) at CD64 [1] was found to be 332000 M⁻¹ s⁻¹. The molecule also returned an off-rate constant (koff) at CD64 [2] of 0.00711 s⁻¹.
Consider “cP33 int-aryl SuFEx: cP33 peptide with the sulfonyl fluoride at an internal position replacing leucine; SEQ ID NO: 14 ([Lys(N3)]VNSCLLLPNK(Benzoyl(3-SO2F))LGCDGD; disulfide 5-14; not fully specified)”, for which the “stability in aqueous conditions (degradation peaks in UV trace)” value in [3] is “noticeable degradation peaks by 27 hours”. The Kobs in the data set with CD64 [4] came out at 9.2e-05 s⁻¹.
With “cP33 ct-aryl SuFEx: cP33 peptide with the sulfonyl fluoride group at the C-terminus; SEQ ID NO: 12 ([Lys(N3)]VNSCLLLPNLLGCDGDK(Benzoyl(3-SO2F)); disulfide 5-14; not fully specified)”, the “stability in aqueous conditions (degradation peaks in UV trace)” value in data set [3] was “some slight degradation peaks by 27 hours”. The “covalent labelling preference for CD64 vs CD16 and BSA” value in the data set with CD64 [5] is on record as “greater binding selectivity compared to the other variants”. In the data set with CD64 [4], the Kobs amounted to 6.7e-05 s⁻¹. The “covalent labelling of CD64 on live cells (streptavidin-PE signal)” value with CD64 on live U937 cells is “specific and effective covalent labelling of CD64 on the surface of live cells”.

B1: CP-33(N-term "Y" insertion mutant)-linker-biotin conjugate (peptide)
peptide: XGYVNSCLLLPNLLGCGDD
modifications: not fully specified; X1 is K, Ac-K(azido), or absent (azide clicked to DBCO-peg4-biotin); disulfide bond between C7 and C16; C-terminal amidation present or absent
Usually Kd stands for a measure of binding affinity in units of concentration. Consider B1, for which the Kd with human CD64 (recombinant) [6] was 20.8 nM; in the data set with human CD64 (recombinant) [7] it was 17.9 nM; in the data set with human CD64 (recombinant) [8], 18.2 nM.

B2: CP-33(C-term "Y" insertion mutant)-linker-biotin conjugate (peptide)
peptide: XVNSCLLLPNLLGCGDDY
modifications: not fully specified; X1 is K, Ac-K(azido), or absent (azide clicked to DBCO-peg4-biotin); disulfide bond between C5 and C14; C-terminal amidation present or absent
On to B2, for which the dissociation constant (Kd) in the data set with human CD64 (recombinant) [9] was found to be 2 nM; in the data set with human CD64 (recombinant) [10] it was 3 nM; in the data set with human CD64 (recombinant) [11] it was 4 nM; with human CD64 (recombinant) [12] it was 2.6 nM.
Regarding {Biotin-PEG4′-DBCO′-azido}-VNSCLLLPNLLGCGDD (disulfide 4-13; not fully specified) [native CP-33-linker-biotin conjugate], the Kd with human CD64 (recombinant) [13] was 56 nM.
As to [Lys(N3)]VNSCLLLPNK(Benzoyl(3-SO2F))LGCDGD (disulfide 5-14; also: X1 azide clicked to DBCO-A647 or DBCO-biotin) [cP33-int-aryl SuFEx], in the data set with human CD64 (recombinant) [14], the Kobs stood at 9.2e-05 s⁻¹.
As for [Lys(N3)]VNSCLLLPNLLGCDGDK(Benzoyl(3-SO2F)) (disulfide 5-14; also: X1 azide clicked to DBCO-A647 or DBCO-biotin) [cP33-ct-aryl SuFEx], in the data set with human CD64 (recombinant) [14], the Kobs came to 6.7e-05 s⁻¹.
